Results reported in patent publication US20130344053A1, “Methods of Modifying Insulin Signaling Using Biliverdin Reductase (BVR) and BVR Derived Peptides” (University of Rochester, priority 2010, published 2013).

Columns and labels:
Format in all cases: biochemical
BVR = molecular target: T1, BVR (Homo sapiens, UniProt P53004, A154S/E160D/G155D); test: Phosphorylation of IRS-1 peptides by BVR; conditions: peptide as substrate for BVR kinase
T1 construct: made in house; host or cells: E. coli (pGEX 4T-2/hBVR)
T1 sequence (P53004 3-296 A154S/G155D/E160D): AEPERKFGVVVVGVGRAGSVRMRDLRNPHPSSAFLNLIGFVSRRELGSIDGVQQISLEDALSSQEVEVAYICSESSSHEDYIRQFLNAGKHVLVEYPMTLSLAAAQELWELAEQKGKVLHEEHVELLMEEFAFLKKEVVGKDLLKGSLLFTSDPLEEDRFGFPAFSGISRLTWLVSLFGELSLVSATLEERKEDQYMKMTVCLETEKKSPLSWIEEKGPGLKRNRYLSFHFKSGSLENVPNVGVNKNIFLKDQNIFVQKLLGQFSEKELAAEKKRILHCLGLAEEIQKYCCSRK
Procedure: (§1) To detect autophosphorylation of BVR, GST-hBVR of wild type (wt) and mutant variants were incubated in 50 mM HEPES buffer (pH 8.4) in the presence of 30 mM MnCl2 and 1 mM DTT for 2 h at 30° C. The reaction was started with the addition of 10 μM ATP labeled with 10 μCi [γ-^32P]-ATP and was stopped with the addition of Laemmli sample buffer. Samples were boiled for 3 min and applied to a 8% SDS-PAGE gels, transferred to a PVDF membrane, and then visualized by autoradiography. To measure kinase activity, GST-BVR (5 μg) was incubated in 5 μl kinase buffer containing 50 mM HEPES buffer (pH 8.4), 20 mM MgCl2, 30 mM MnCl2, 1 mM DTT and 10 μM ATP labeled with 10 μCi [γ-^32P]-ATP in the presence of 5 μg substrates: IRS-1 or Raytide or poly glu/tyr (4:1) for 2 h at 30° C. The reaction was started with the addition of ATP and terminated by adding 120 μl 10% H3PO4. 100 μl aliquots were directly transferred to P81 Whatman filters which were subsequently washed extensively in 0.75% phosphoric acid at room temperature. Finally, the filters were submerged in acetone for 5 min, dried, and retained counts were measured using a Beckman LS 6500 liquid scintillation counter (Beckman Coulter, Fullerton, Calif.).
The following experiments were conducted to determine whether IRS is a substrate for serine kinase activity of BVR or its tyrosine kinase activity. […]

[1] = molecular target: T2, insulin receptor kinase (IRK) (Homo sapiens, UniProt P06213); test: BVR phosphorylation by the insulin receptor tyrosine kinase (IRK); conditions: for reduction of extent of BVR phosphorylation by IRK compared with wtBVR: tyrosine point mutant as IRK substrate, 2 h at 30° C.; for BVR phosphorylation by IRK (mutant as substrate): tyrosine point or double mutant as IRK substrate
T2 construct: GST-hBVR fusion protein and the 48 kDa cytoplasmic domain of the β-subunit of IRK; purchased Biomol International (Plymouth, Pa.)
T2 sequence (P06213 980-1382 limits assumed): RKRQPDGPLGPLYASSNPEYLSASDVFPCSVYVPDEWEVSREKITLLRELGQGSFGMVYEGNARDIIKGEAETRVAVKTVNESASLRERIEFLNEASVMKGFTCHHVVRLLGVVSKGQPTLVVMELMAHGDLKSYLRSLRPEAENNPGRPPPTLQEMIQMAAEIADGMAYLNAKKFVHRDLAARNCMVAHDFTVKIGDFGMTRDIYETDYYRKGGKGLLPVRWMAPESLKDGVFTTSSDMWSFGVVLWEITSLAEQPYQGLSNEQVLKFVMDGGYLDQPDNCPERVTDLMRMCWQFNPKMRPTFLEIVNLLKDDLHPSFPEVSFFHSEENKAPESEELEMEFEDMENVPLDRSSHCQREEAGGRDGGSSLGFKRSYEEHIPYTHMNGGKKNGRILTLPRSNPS
Procedure: FIGS. 7A-B illustrate BVR as a substrate for insulin receptor kinase. […] 10 μg purified wtBVR was incubated in 100 μl kinase assay buffer (pH 8.0) containing 0.1 μg IRK, 10 μM ATP, and 20 μCi [^32P]-ATP at 25° C. up to 4 h. The reaction was terminated by the addition of Laemmli buffer at different points of time as indicated. Samples were separated using 8% SDS-PAGE gel and transferred onto PVDF filter, and phosphorylated protein bands were visualized by autoradiography. […] From left to right lane 1, wtBVR plus IRK in the presence of 50 mM EDTA (pH 8.0); lane 2, wtBVR plus IRK; lane 3, wtBVR in the absence of IRK. The reaction mixtures were subjected to SDS-PAGE electrophoresis and transferred onto a polyvinylidene fluoride (“PVDF”) filter. The blot was immuno-stained with anti-phosphotyrosine antibodies and ECL detection system was used to visualize phosphorylated tyrosines. […] In FIG. 8A the Y^198 residue of BVR is phosphorylated by IRK. Purified wtBVR and Y^198 mutant BVR were incubated with IRK at 30° C. for 2 h. Samples were subjected to SDS-PAGE electrophoresis and processed as described in FIG. 8B. FIG. 8B is a time course of Y^198 mutant BVR phosphorylation by IRK. A purified preparation of human BVR that carried Y^198 mutation was incubated with IRK for up to 3 h as described in FIG. 7A. Samples taken at the indicated time-points were analyzed for detection of phosphorylated proteins as above. […] Subsequently, samples were subjected to SDS-PAGE, stained with Coomassie blue and visualized bands were excised and used for measurement of radioactive content. The experiments were repeated three times. […] The indicated double mutants of BVR were used as substrates for IRK and analysis was carried out as in FIG. 8A. FIGS. 10A-B illustrate that autophosphorylation of BVR is an Mn^+2 dependant kinase reaction. […] The effects of different metal ions (30 mM MnCl2, 20 mM MgCl2, 20 mM CaCl2, 20 mM Zn acetate) and their combinations were analyzed as indicated in the text. […] The reactions were carried out in HEPES buffer (pH 8.0) in the presence of 20 mM MgCl2 as described in the Examples. Phosphorylation of BVR by IRK was examined using GST-hBVR fusion protein and the 48 kDa cytoplasmic domain of the β-subunit of IRK. BVR (5 μg) was incubated in 50 μl of IRK kinase buffer containing 50 mM HEPES (pH 8.0), 20 mM MgCl2, 1 mM DTT in the presence of 0.05 μg IRK and 10 μM ATP labeled with 10 μCi [γ-^32P]-ATP. The reaction was started with the addition of labeled ATP and incubated for 2-4 h. Reactions were terminated by addition of Laemmli sample buffer and boiled for 3 min. Samples were subjected to 8% SDS-PAGE and transferred to PVDF membranes for autoradiography.

human BVR = test: BVR autophosphorylation; conditions: pH 8.4, 30 mM MnCl2, 2 h at 30° C.
Procedure: In FIG. 9A, effect of tyrosine mutations of BVR on its autophosphorylation is shown. Human wtBVR and BVR with mutations in tyrosine were used in the experiment to determine autophosphorylation of BVR. The reactions were performed as described in the Examples. FIG. 9B is a graph showing that BVR tyrosine kinase activity was checked by incubating 5 μg purified BVR with 5 μg Raytide in 50 μl kinase buffer containing 10 μM labeled ATP for 2 h at 30° C. The aliquots of the reaction were transferred onto P81 Whatman filters and radioactivity due to phosphorylation was measured using a scintillation counter.
FIGS. 10A-B illustrate that autophosphorylation of BVR is an Mn^+2 dependant kinase reaction. […] The effects of different metal ions (30 mM MnCl2, 20 mM MgCl2, 20 mM CaCl2, 20 mM Zn acetate) and their combinations were analyzed as indicated in the text. […] Phosphorylation of wtBVR by IRK in the presence of tyrosine kinase inhibitor genestein (200 μM); DMSO was used as the vehicle for genestein and was included in the control reaction mixture. The reactions were carried out in HEPES buffer (pH 8.0) in the presence of 20 mM MgCl2 as described in the Examples.
as §1, with “To measure kinase activity, GST-BVR (5 μg) was incubated in 5 μl kinase buffer containing 50 mM HEPES buffer (pH 8.4), 20 mM MgCl2, 30 mM MnCl2, 1 mM DTT and 10 μM ATP labeled with 10 μCi [γ-^32P]-ATP in the presence of 5 μg substrates: IRS-1 or Raytide or poly glu/tyr (4:1) for 2 h at 30° C.” left out

Lys-Lys-His-Ala-Asp-Asp-Gly-Ala-Met-Pro-Met-Ser^312-Pro-Gly-Val-Ala (KKHADDGAMPMSPGVA; Biliverdin reductase peptide) [mutant IRS-1 peptide (#1), mutant IRS-1 peptide without tyrosine, only S^616 maintained]
phosphorylation of IRS-1 peptide by BVR (BVR): 1049±78 cpm

O=c1c(-c2ccc(O)cc2)coc2cc(O)cc(O)c12 [Genestein, reference compound]
BVR phosphorylation mediated by IRK in presence of PTK inhibitor ([1]; genestein 200 μM, HEPES pH 8.0, 20 mM MgCl2): significantly inhibited BVR phosphorylation mediated by IRK

Arg-Thr-Glu-Ser^307-Ile-Thr-Ala-Thr-Ser^312-Pro-Ala-Ser^315-Met-Val-Gly-Gly-Lys-Pro (RTESITATSPASMVGGKP; Biliverdin reductase peptide) [second IRS-1 peptide (#2), IRS-1 peptide containing S^307, S^312, and S^315]
phosphorylation of IRS-1 peptide by BVR (BVR): 1198±230 cpm

O=C(O)CN(CCN(CC(=O)O)CC(=O)O)CC(=O)O [EDTA, reference compound]
phosphorylation of BVR by IRK in presence of EDTA ([1]; 50 mM EDTA (pH 8.0), 30° C., 2 h): abolished phosphorylation of BVR by IRK

B1: Y^228: human BVR point mutant NRYLS to NRFLS (protein, UniProt P53004 3-296, looked up, variant Y228F)
Biliverdin reductase A: AEPERKFGVVVVGVGRAGSVRMRDLRNPHPSSAFLNLIGFVSRRELGSIDGVQQISLEDALSSQEVEVAYICSESSSHEDYIRQFLNAGKHVLVEYPMTLSLAAAQELWELAEQKGKVLHEEHVELLMEEFAFLKKEVVGKDLLKGSLLFTAGPLEEERFGFPAFSGISRLTWLVSLFGELSLVSATLEERKEDQYMKMTVCLETEKKSPLSWIEEKGPGLKRNRFLSFHFKSGSLENVPNVGVNKNIFLKDQNIFVQKLLGQFSEKELAAEKKRILHCLGLAEEIQKYCCSRK
reduction of extent of BVR phosphorylation by IRK compared with wtBVR [1]: 40% | autophosphorylation of BVR (mutants) (human BVR): did not result in significant changes in autophosphorylation of BVR

B2: Y^291: human BVR point mutant QKYCC to QKFCC (protein, UniProt P53004 3-296, looked up, variant Y291F)
Biliverdin reductase A: AEPERKFGVVVVGVGRAGSVRMRDLRNPHPSSAFLNLIGFVSRRELGSIDGVQQISLEDALSSQEVEVAYICSESSSHEDYIRQFLNAGKHVLVEYPMTLSLAAAQELWELAEQKGKVLHEEHVELLMEEFAFLKKEVVGKDLLKGSLLFTAGPLEEERFGFPAFSGISRLTWLVSLFGELSLVSATLEERKEDQYMKMTVCLETEKKSPLSWIEEKGPGLKRNRYLSFHFKSGSLENVPNVGVNKNIFLKDQNIFVQKLLGQFSEKELAAEKKRILHCLGLAEEIQKFCCSRK
reduction of extent of BVR phosphorylation by IRK compared with wtBVR [1]: 49% | autophosphorylation of BVR (mutants) (human BVR): did not result in significant changes in autophosphorylation of BVR

B3: Y^198 plus Y^228: human BVR double mutant DQFMK and NRFLS (protein, UniProt P53004 3-296, looked up, variant Y198F Y228F)
Biliverdin reductase A: AEPERKFGVVVVGVGRAGSVRMRDLRNPHPSSAFLNLIGFVSRRELGSIDGVQQISLEDALSSQEVEVAYICSESSSHEDYIRQFLNAGKHVLVEYPMTLSLAAAQELWELAEQKGKVLHEEHVELLMEEFAFLKKEVVGKDLLKGSLLFTAGPLEEERFGFPAFSGISRLTWLVSLFGELSLVSATLEERKEDQFMKMTVCLETEKKSPLSWIEEKGPGLKRNRFLSFHFKSGSLENVPNVGVNKNIFLKDQNIFVQKLLGQFSEKELAAEKKRILHCLGLAEEIQKYCCSRK
BVR phosphorylation by IRK (mutant as substrate) [1]: little or no phosphorylation was detected

B4: Y^198 plus Y^291: human BVR double mutant DQFMK and QKFCC (protein, UniProt P53004 3-296, looked up, variant Y198F Y291F)
Biliverdin reductase A: AEPERKFGVVVVGVGRAGSVRMRDLRNPHPSSAFLNLIGFVSRRELGSIDGVQQISLEDALSSQEVEVAYICSESSSHEDYIRQFLNAGKHVLVEYPMTLSLAAAQELWELAEQKGKVLHEEHVELLMEEFAFLKKEVVGKDLLKGSLLFTAGPLEEERFGFPAFSGISRLTWLVSLFGELSLVSATLEERKEDQFMKMTVCLETEKKSPLSWIEEKGPGLKRNRYLSFHFKSGSLENVPNVGVNKNIFLKDQNIFVQKLLGQFSEKELAAEKKRILHCLGLAEEIQKFCCSRK
BVR phosphorylation by IRK (mutant as substrate) [1]: little or no phosphorylation was detected
